This is an account of results in patent US11306156.

Usually Kd stands for a measure of binding affinity in units of concentration. Higher therefore signals lower affinity.

For assay [1], the target named is D3H44 Fab heavy chain L124R_D146N_Q179K, C-terminal ABD2-His6 tag. Kind of assay: LCCA set 9350 (co-expression; SPR read-out of light-chain tags; L1:L2 DNA 1:3, normalized to 1:1); competing light chain m12.
Assay [2] addresses D3H44 Fab heavy chain L124R_Q179K, C-terminal ABD2-His6 tag. Kind of assay: LCCA (co-expression, SPR read-out of light chain tags), L1:L2 DNA 1:3 normalised to 1:1; competitor m11.
The target in assay [3] is D3H44 Fab heavy chain L124E_L143D_K145M, C-terminal ABD2-His6 tag. The description is as above.
Assay [4] concerns the target D3H44 Fab heavy chain L124E_L143D_K145T, C-terminal ABD2-His6 tag. The description is as above.
Assay [5] addresses D3H44 Fab heavy chain L124E_L143E_K145M, C-terminal ABD2-His6 tag. Description: LCCA set 9266 (co-expression; SPR read-out of light-chain tags; L1:L2 DNA 1:3, normalized to 1:1); competing light chain m9.
For assay [6], the target named is D3H44 Fab heavy chain L124R_Q179K, C-terminal ABD2-His6 tag. Description: LCCA set 9388 (co-expression; SPR read-out of light-chain tags; L1:L2 DNA 1:3, normalized to 1:1); competing light chain m9.
Assay [7] deals with D3H44 Fab heavy chain L124E_L143E_K145T, C-terminal ABD2-His6 tag. Kind of assay: LCCA set 9298 (co-expression; SPR read-out of light-chain tags; L1:L2 DNA 1:3, normalized to 1:1); competing light chain m10.
Assay [8] has the same target. Kind of assay: LCCA set 9316 (co-expression; SPR read-out of light-chain tags; L1:L2 DNA 1:3, normalized to 1:1); competing light chain m9.
In assay [9] the target is D3H44 Fab heavy chain L124E_L143E_K145M, C-terminal ABD2-His6 tag. Description: LCCA set 9259 (co-expression; SPR read-out of light-chain tags; L1:L2 DNA 1:3, normalized to 1:1); competing light chain m10.
For assay [10], the target named is D3H44 Fab heavy chain L124R_Q179K, C-terminal ABD2-His6 tag. Description: LCCA (co-expression, SPR read-out of light chain tags), L1:L2 DNA 1:3 normalised to 1:1; competitor m9.
For assay [11], the target named is D3H44 Fab heavy chain L124E_L143D_K145M, C-terminal ABD2-His6 tag. The description is as above.
In assay [12] the target is D3H44 Fab heavy chain L124E_L143D_K145T, C-terminal ABD2-His6 tag. The assay is described as above.
The target of assay [13] is D3H44 Fab heavy chain L124R_Q179K, C-terminal ABD2-His6 tag. Description: LCCA (co-expression, SPR read-out of light chain tags), L1:L2 DNA 1:3 normalised to 1:1; competitor m10.
Assay [14] deals with D3H44 Fab heavy chain L124E_L143D_K145M, C-terminal ABD2-His6 tag. Described as above.
In assay [15] the target is D3H44 Fab heavy chain L124E_L143E_K145T, C-terminal ABD2-His6 tag. Kind of assay: LCCA set 9271 (co-expression; SPR read-out of light-chain tags; L1:L2 DNA 1:3, normalized to 1:1); competing light chain m12.
Assay [16] concerns the target D3H44 Fab heavy chain L124R_Q179K, C-terminal ABD2-His6 tag. Description: LCCA co-expression, SPR tag read-out; DNA 1:3 norm. to 1:1; competing light chain m8.
The target in assay [17] is D3H44 Fab heavy chain L124E_L143E_K145M, C-terminal ABD2-His6 tag. Described as above.
Assay [18] has as its target D3H44 Fab heavy chain L124E_L143D_K145T, C-terminal ABD2-His6 tag. The assay is described as above.
The target of assay [19] is D3H44 Fab heavy chain L124R_Q179K, C-terminal ABD2-His6 tag. Description: LCCA set 9384 (co-expression; SPR read-out of light-chain tags; L1:L2 DNA 1:3, normalized to 1:1); competing light chain m10.
Assay [20] shares this target. Kind of assay: LCCA co-expression, SPR tag read-out; DNA 1:3 norm. to 1:1; competing light chain m7.
Assay [21] concerns the target D3H44 Fab heavy chain L124E_L143E_K145M, C-terminal ABD2-His6 tag. Described as above.
Assay [22] has as its target D3H44 Fab heavy chain L124E_L143E_K145T, C-terminal ABD2-His6 tag. The description is as above.
Assay [23] addresses D3H44 Fab heavy chain L124W_L143E_K145T_Q179E, ABD2-His6 tagged. Description: LCCA, SPR of light chain tags; L1:L2 DNA 1:9 normalized to 1:1; competing light chain m12.
Assay [24] has the same target. Description: LCCA, SPR of light chain tags; L1:L2 DNA 1:3 normalized to 1:1; competing light chain m12.
For assay [25], the target named is D3H44 Fab heavy chain L124A_L143F_Q179K, ABD2-His6 tagged. The assay is described as above.
In assay [26] the target is D3H44 Fab heavy chain L124W_L143F_K145T_Q179E, ABD2-His6 tagged. Kind of assay: LCCA, SPR of light chain tags; L1:L2 DNA 1:3 normalized to 1:1; competing light chain m15.
For assay [27] the target is unchanged. Kind of assay: LCCA, SPR of light chain tags; L1:L2 DNA 1:3 normalized to 1:1; competing light chain m12.
The target of assay [28] is D3H44 light chain Q38E_Q124E_Q160E_T180E. Description: LCCA, SPR tag readout, L1:L2 DNA 1:3 normalized to 1:1; competitor m26.
Assay [29] has the same target. Description: LCCA, SPR tag readout, L1:L2 DNA 1:9 normalized to 1:1; competitor m26.
Assay [30] addresses D3H44 light chain Q38R_Q124R_Q160K_T178R. Kind of assay: LCCA, SPR tag readout, L1:L2 DNA 1:3 normalized to 1:1; competitor m19.
Assay [31] shares this target. Description: LCCA, SPR tag readout, L1:L2 DNA 1:9 normalized to 1:1; competitor m19.
The target of assay [32] is tissue factor (TF) antigen (UniProt P13726). Description: SPR (ProteOn XPR36), Fab captured on anti-penta His, TF injected at 0.74-60 nM, 1:1 model; median.
For assay [33] the target is unchanged. Kind of assay: SPR (ProteOn XPR36), Fab captured on anti-penta His, TF injected, 1:1 model.
The target in assay [34] is D3H44 Fab heavy chain L124A_L143F_Q179K, ABD2-His6 tagged. Kind of assay: LCCA, SPR of light chain tags; L1:L2 DNA 1:3 normalized to 1:1; competing light chain m13.
For assay [35], the target named is D3H44 Fab heavy chain L124W_L143E_K145T_Q179E, ABD2-His6 tagged. Kind of assay: LCCA, SPR of light chain tags; L1:L2 DNA 1:9 normalized to 1:1; competing light chain m13.
Assay [36] addresses D3H44 Fab heavy chain L124A_L143F_Q179K, ABD2-His6 tagged. The assay is described as above.
Assay [37] addresses D3H44 Fab heavy chain L124W_L143E_K145T_Q179E, ABD2-His6 tagged. Kind of assay: LCCA, SPR of light chain tags; L1:L2 DNA 1:3 normalized to 1:1; competing light chain m14.
Assay [38] concerns the target D3H44 Fab heavy chain L124W_L143F_K145T_Q179E, ABD2-His6 tagged. The description is as above.
The target in assay [39] is D3H44 Fab heavy chain L124A_L143F_Q179K, ABD2-His6 tagged. Described as above.
The target in assay [40] is D3H44 Fab heavy chain L124A_Q179K, ABD2-His6 tagged. The assay is described as above.

Turning to “D3H44 light chain Q124E_V133G_S176D_T178E_T180E, N-terminal HA or FLAG tag”, the H2L2:H2L1 normalized median ratio (H2L2 part) is 82% in assay [1], 92% in assay [6] and 92% in assay [19]. The H2L2:H2L1 normalized median ratio in assay [2] came to 93%; in [10], 92%; in [13], 92%. Besides, the H1L1:H1L2 normalized median ratio in assay [3] was 10%; in assay [4], 11%; in assay [11] it was 8%; in [12], 8%; in assay [14], 9%. In addition, the H1L1:H1L2 normalized median ratio (H1L2 part) came out at 16% in assay [5]; 12% in [7]; 12% in [8]; 16% in assay [9]; 5% in [15]. Moreover, the H2L2:H2L1 normalized median ratio (% (ratio normalized to 100)) in assay [16] and in [20] was 92 throughout. Besides, the H1L1:H1L2 normalized median ratio (% (ratio normalized to 100)) in assay [17] came to 5; in assay [18] it was 8; in [21], 8; in assay [22], 5.

On to “D3H44 light chain Q124K_V133A_S176T_T178R, HA or FLAG tagged”, for which the H2L2:H2L1 normalized median ratio in [23] was found to be 92%; in assay [24], 89%. For the same substance, the H1L1:H1L2 normalized median ratio in [25] is 5%.

Take “D3H44 light chain S131K_V133A_S176T_T178L, HA or FLAG tagged”: the H2L2:H2L1 normalized median ratio in [26] stood at 69%; in assay [24] it was 78%; in assay [27], 70%.

“D3H44 Fab heavy chain Q39E_L143E_K145T_H172R_Q179E”: the H1L1:H1L2 normalized median ratio in [28] came out at 3%; in [29] it was 5%; in assay [30], 97%; in assay [31], 95%. Besides, the H1L1:H1L2 normalized median scalar value ln(r1/f1) in assay [31] was 2.96.

Substance “wild-type D3H44 Fab heterodimer constructs (Fab constructs containing HA tag or FLAG tag)” returned a Kd in assay [32] of 150 pM. The same substance gave a fold difference between the maximum and minimum KD values in [33] of 2.6 fold.

Turning to “D3H44 light chain Q124E_V133W_S176T_T178E_T180E, HA or FLAG tagged”, the H1L1:H1L2 normalized median ratio was determined as 95% in [34], 97% in assay [39] and 97% in assay [40]. In addition, the H1L1:H1L2 normalized median scalar value ln(r1/f1) in assay [34] amounted to 2.88; in [36], 2.69; in [39] it was 3.61; in [40] it was 3.59. The H2L2:H2L1 normalized median ratio in assay [35] came out at 8%; in [37] it was 22%; in assay [38] it was 30%.
